Source: paper PMC5099578, “A structural and functional study on the 2-C-methyl-D-erythritol-4-phosphate cytidyltransferase (IspD) from Bacillus subtilis” (Scientific Reports, 2016)

Molecular target: the molecule itself
Test: crystal structure; apo form I, space group P2_(1)2_(1)2_(1), crystallization condition I, hanging drop at 18 °C; two molecules in the asymmetric unit; 1.80 Å

B1: 2-C-methyl-D-erythritol-4-phosphate cytidyltransferase (IspD) from Bacillus subtilis (enzyme, Bacillus subtilis 168)
chain: MSYDVVIPAAGQGKRMKAGRNKLFIELKGDPVIIHTLRVFDSHRQCDKIILVINEQEREHFQQLLSDYPFQTSIELVAGGDERQHSVYKGLKAVKQEKIVLVHDGARPFIKHEQIDELIAEAEQTGAAILAVPVKDTIKRVQDLQVSETIERSSLWAVQTPQAFRLSLLMKAHAEAERKGFLGTDDASLVEQMEGGSVRVVEGSYTNIKLTTPDDLTSAEAIMESESGNKHV
notes: IspD of Bacillus subtilis 168 (DSM 23778); the IspD gene amplified from genomic DNA as a 699 bp product; 232 residues built in apo form I (residues numbered up to 232); 699 bp fits 232 codons and a stop codon, so probably the whole gene; Cloned BamHI/XhoI in pGEX-6P-1; GST removed by PreScission protease, so a few vector residues may be left at the N-terminus (surmised); also called BsIspD; …
For B1, the “stoichiometry N” value was 2.
